Results: the supplement of paper PMC10567573

B1: CIB1 (parent)
chain: DLSRLVNCLTGEGEDTRLSASEMK
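Note: lentivirally expressed fusions sorted by FACS into six bins by GFP to DsRed ratio, PSI derived from sequencing read proportions per bin multiplied by bin number.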

Variants of: B1
Experiment: protein stability index of a GFP-peptide fusion (GPS, HEK-293T) (PSI 1-6); higher = more stable
Conditions: c terminus: a fixed tail appended
Work on DLSRLLNCLTGEGEDTRLSASEMK yielded a protein stability index of 3.68. DLSRLMNCLTGEGEDTRLSASEMK showed a protein stability index of 3.61. DLSRLNNCLTGEGEDTRLSASEMK gave a protein stability index of 4.04. Work on DLSRLPNCLTGEGEDTRLSASEMK yielded a protein stability index of 4.84. With DLSRLQNCLTGEGEDTRLSASEMK the protein stability index was 2.64. In the case of DLSRLRNCLTGEGEDTRLSASEMK, the protein stability index is reported as 3.94. DLSRLSNCLTGEGEDTRLSASEMK gave a protein stability index of 2.6. DLSRLTNCLTGEGEDTRLSASEMK showed a protein stability index of 3.08. Variant DLSRLWNCLTGEGEDTRLSASEMK has a protein stability index of 2.64. In the case of DLSRLVACLTGEGEDTRLSASEMK, the protein stability index is reported as 3.12. Variant DLSRLVDCLTGEGEDTRLSASEMK has a protein stability index of 4.32. For DLSRLVECLTGEGEDTRLSASEMK, the protein stability index was 4. With DLSRLVGCLTGEGEDTRLSASEMK the protein stability index was 2.74. With DLSRLVICLTGEGEDTRLSASEMK the protein stability index was 2.59. In the case of DLSRLVKCLTGEGEDTRLSASEMK, the protein stability index is reported as 2.84. DLSRLVLCLTGEGEDTRLSASEMK gave a protein stability index of 3.85. DLSRLVMCLTGEGEDTRLSASEMK gave a protein stability index of 2.09. DLSRLVPCLTGEGEDTRLSASEMK gave a protein stability index of 4.6. In the case of DLSRLVRCLTGEGEDTRLSASEMK, the protein stability index is reported as 3.09. In the case of DLSRLVSCLTGEGEDTRLSASEMK, the protein stability index is reported as 3.63. Work on DLSRLVTCLTGEGEDTRLSASEMK yielded a protein stability index of 2.62. With DLSRLVWCLTGEGEDTRLSASEMK the protein stability index was 2.2. Variant DLSRLVNALTGEGEDTRLSASEMK has a protein stability index of 3.09. Work on DLSRLVNDLTGEGEDTRLSASEMK yielded a protein stability index of 4.3. With DLSRLVNELTGEGEDTRLSASEMK the protein stability index was 3.42. For DLSRLVNFLTGEGEDTRLSASEMK, the protein stability index was 2.46. Work on DLSRLVNGLTGEGEDTRLSASEMK yielded a protein stability index of 3.77. DLSRLVNHLTGEGEDTRLSASEMK gave a protein stability index of 2.81. With DLSRLVNILTGEGEDTRLSASEMK the protein stability index was 2.4. DLSRLVNKLTGEGEDTRLSASEMK gave a protein stability index of 1.43. Work on DLSRLVNLLTGEGEDTRLSASEMK yielded a protein stability index of 2.21. In the case of DLSRLVNMLTGEGEDTRLSASEMK, the protein stability index is reported as 3.52. In the case of DLSRLVNNLTGEGEDTRLSASEMK, the protein stability index is reported as 3.02. With DLSRLVNPLTGEGEDTRLSASEMK the protein stability index was 4.28. With DLSRLVNQLTGEGEDTRLSASEMK the protein stability index was 3.95. With DLSRLVNSLTGEGEDTRLSASEMK the protein stability index was 3.63. DLSRLVNVLTGEGEDTRLSASEMK showed a protein stability index of 3.27. Variant DLSRLVNYLTGEGEDTRLSASEMK has a protein stability index of 2.34. With DLSRLVNCATGEGEDTRLSASEMK the protein stability index was 1.75. Work on DLSRLVNCDTGEGEDTRLSASEMK yielded a protein stability index of 3.23. Work on DLSRLVNCETGEGEDTRLSASEMK yielded a protein stability index of 3.09. Work on DLSRLVNCFTGEGEDTRLSASEMK yielded a protein stability index of 3.35. DLSRLVNCHTGEGEDTRLSASEMK showed a protein stability index of 3.78. DLSRLVNCITGEGEDTRLSASEMK showed a protein stability index of 3.04. Variant DLSRLVNCMTGEGEDTRLSASEMK has a protein stability index of 4.05. With DLSRLVNCNTGEGEDTRLSASEMK the protein stability index was 4.24. For DLSRLVNCPTGEGEDTRLSASEMK, the protein stability index was 2.87. DLSRLVNCQTGEGEDTRLSASEMK showed a protein stability index of 3.25. In the case of DLSRLVNCRTGEGEDTRLSASEMK, the protein stability index is reported as 2.54. Variant DLSRLVNCSTGEGEDTRLSASEMK has a protein stability index of 2.62. With DLSRLVNCTTGEGEDTRLSASEMK the protein stability index was 3.02. With DLSRLVNCVTGEGEDTRLSASEMK the protein stability index was 4.17. Work on DLSRLVNCYTGEGEDTRLSASEMK yielded a protein stability index of 3.32. For DLSRLVNCLAGEGEDTRLSASEMK, the protein stability index was 3.49. For DLSRLVNCLCGEGEDTRLSASEMK, the protein stability index was 4.11. DLSRLVNCLDGEGEDTRLSASEMK gave a protein stability index of 3.27. DLSRLVNCLEGEGEDTRLSASEMK gave a protein stability index of 3.39. DLSRLVNCLFGEGEDTRLSASEMK gave a protein stability index of 2.77. DLSRLVNCLGGEGEDTRLSASEMK showed a protein stability index of 2.92. In the case of DLSRLVNCLHGEGEDTRLSASEMK, the protein stability index is reported as 3.94. DLSRLVNCLIGEGEDTRLSASEMK gave a protein stability index of 2.68. In the case of DLSRLVNCLKGEGEDTRLSASEMK, the protein stability index is reported as 2.9. With DLSRLVNCLLGEGEDTRLSASEMK the protein stability index was 2.44. Variant DLSRLVNCLMGEGEDTRLSASEMK has a protein stability index of 2.11. DLSRLVNCLPGEGEDTRLSASEMK gave a protein stability index of 2.44. In the case of DLSRLVNCLQGEGEDTRLSASEMK, the protein stability index is reported as 3.61. Variant DLSRLVNCLRGEGEDTRLSASEMK has a protein stability index of 2.15. In the case of DLSRLVNCLSGEGEDTRLSASEMK, the protein stability index is reported as 3.17. DLSRLVNCLVGEGEDTRLSASEMK showed a protein stability index of 3.38. For DLSRLVNCLWGEGEDTRLSASEMK, the protein stability index was 2.48. With DLSRLVNCLYGEGEDTRLSASEMK the protein stability index was 1.99. DLSRLVNCLTCEGEDTRLSASEMK gave a protein stability index of 3.16. DLSRLVNCLTEEGEDTRLSASEMK showed a protein stability index of 3.98. Variant DLSRLVNCLTFEGEDTRLSASEMK has a protein stability index of 3.35. For DLSRLVNCLTHEGEDTRLSASEMK, the protein stability index was 3.81. Work on DLSRLVNCLTIEGEDTRLSASEMK yielded a protein stability index of 3. In the case of DLSRLVNCLTKEGEDTRLSASEMK, the protein stability index is reported as 3.49. Variant DLSRLVNCLTLEGEDTRLSASEMK has a protein stability index of 2.88. Work on DLSRLVNCLTMEGEDTRLSASEMK yielded a protein stability index of 2.84. In the case of DLSRLVNCLTNEGEDTRLSASEMK, the protein stability index is reported as 3.7. DLSRLVNCLTQEGEDTRLSASEMK showed a protein stability index of 3.03. DLSRLVNCLTREGEDTRLSASEMK gave a protein stability index of 2.9. With DLSRLVNCLTSEGEDTRLSASEMK the protein stability index was 3.55. Variant DLSRLVNCLTTEGEDTRLSASEMK has a protein stability index of 2.6. DLSRLVNCLTWEGEDTRLSASEMK gave a protein stability index of 2.34. Work on DLSRLVNCLTYEGEDTRLSASEMK yielded a protein stability index of 2.67. Variant DLSRLVNCLTGAGEDTRLSASEMK has a protein stability index of 2.15. Work on DLSRLVNCLTGCGEDTRLSASEMK yielded a protein stability index of 3.46. With DLSRLVNCLTGDGEDTRLSASEMK the protein stability index was 1.73. DLSRLVNCLTGFGEDTRLSASEMK gave a protein stability index of 1.63. For DLSRLVNCLTGGGEDTRLSASEMK, the protein stability index was 1.18. For DLSRLVNCLTGHGEDTRLSASEMK, the protein stability index was 2.92. Variant DLSRLVNCLTGIGEDTRLSASEMK has a protein stability index of 2.38. Variant DLSRLVNCLTGKGEDTRLSASEMK has a protein stability index of 3.29.
